The values below come from article PMC10928148 (Molecular Therapy, 2024).

For assay [1], the target named is T1, receptor binding domain of the SARS-CoV-2 (Wuhan) Spike protein with C-terminal 6xHis-tag (Severe acute respiratory syndrome …, UniProt P0DTC2). In words: SPR. The settings on record: both partners purified.
Assay [2] concerns the target T1, receptor binding domain of the …. Description: SPR. The settings on record: both partners purified. This is another data set of the same source.
In assay [3] the target is T2, receptor binding domain of the SARS-CoV-2 (Wuhan) Spike protein with C-terminal 6xHis-tag (SARS-CoV-2 (Wuhan), UniProt P0DTC2). In words: cell-based or functional assay.
Assay [4] deals with T2, receptor binding domain of the …. Description: SPR. The settings on record: both partners purified.

B1: 2-15 monomeric IgA1 (antibody, V domains shown)
VH: QVQLVQSGAEVKKPGASVRVSCKASGYTFTGYYMHWVRQAPGQGLEWMGWINPISDGTNYAQKFQGWVTMTRDTSISTVYMELSRLRSDDTAVYYCARGGSRCSGGNCYGWAYDAFDIWGQGTMITVSS
VL: QSALTQPASVSGSPGQSITISCTGTSSDVGGYNFVSWYQQHPGKAPKLMIYDVSKRPSGVSNRFSGSKSGNTASLTISGLQAEDEADCYCSSYTSSSTFVFGTGTKVTVL
In turn, B1 showed a Kd in assay [1] of 3.75 nM.

B2: 2-15 IgG (antibody, V domains shown)
VH: QVQLVQSGAEVKKPGASVRVSCKASGYTFTGYYMHWVRQAPGQGLEWMGWINPISDGTNYAQKFQGWVTMTRDTSISTVYMELSRLRSDDTAVYYCARGGSRCSGGNCYGWAYDAFDIWGQGTMITVSS
VL: QSALTQPASVSGSPGQSITISCTGTSSDVGGYNFVSWYQQHPGKAPKLMIYDVSKRPSGVSNRFSGSKSGNTASLTISGLQAEDEADCYCSSYTSSSTFVFGTGTKVTVL
In assay [1], B2 displayed a Kd of 1.16 nM.

B3: 2-15 monomeric IgA2 (antibody, V domains shown)
VH: QVQLVQSGAEVKKPGASVRVSCKASGYTFTGYYMHWVRQAPGQGLEWMGWINPISDGTNYAQKFQGWVTMTRDTSISTVYMELSRLRSDDTAVYYCARGGSRCSGGNCYGWAYDAFDIWGQGTMITVSS
VL: QSALTQPASVSGSPGQSITISCTGTSSDVGGYNFVSWYQQHPGKAPKLMIYDVSKRPSGVSNRFSGSKSGNTASLTISGLQAEDEADCYCSSYTSSSTFVFGTGTKVTVL
B3 gave a Kd in assay [1] of 2.88 nM.

B4: COVA2-15 monomeric IgA1 (antibody, V domains shown)
VH: QVQLLESGGGLVQPGGSLRLSCAASGFTFSSYAMSWVRQAPGKGLEWASAISGSGGSTYYADSVEGRFTISRDNSKNTLYLQMNSLRAEDTAVYYCAKDTGYCGDDCYIKLIRGGPDYWGQGTLVTVSS
VL: DIVMTQSPLSLPVTLGQPASISCRSSQSLVYSDGNTFLNWFQQRPGQSPRRLIYQVSNRDSGVPDRFSGSGSGTDFTLKISRVEAEDVGVYYCMQGTHWPRTFGQGTKLEIK
In assay [2], B4 registered a Kd of 1.43 nM, a koff of 0.00027 s⁻¹ and a kon of 231000 M⁻¹ s⁻¹.

B5: COVA2-15 monomeric IgA1 (antibody, V domains shown)
VH: QVQLLESGGGLVQPGGSLRLSCAASGFTFSSYAMSWVRQAPGKGLEWASAISGSGGSTYYADSVEGRFTISRDNSKNTLYLQMNSLRAEDTAVYYCAKDTGYCGDDCYIKLIRGGPDYWGQGTLVTVSS
VL: DIVMTQSPLSLPVTLGQPASISCRSSQSLVYSDGNTFLNWFQQRPGQSPRRLIYQVSNRDSGVPDRFSGSGSGTDFTLKISRVEAEDVGVYYCMQGTHWPRTFGQGTKLEIK
Molecule B5 displayed an other in assay [3] of 50 ng/mL.

B6: COVA2-15 monomeric IgA2 (antibody, V domains shown)
VH: QVQLLESGGGLVQPGGSLRLSCAASGFTFSSYAMSWVRQAPGKGLEWASAISGSGGSTYYADSVEGRFTISRDNSKNTLYLQMNSLRAEDTAVYYCAKDTGYCGDDCYIKLIRGGPDYWGQGTLVTVSS
VL: DIVMTQSPLSLPVTLGQPASISCRSSQSLVYSDGNTFLNWFQQRPGQSPRRLIYQVSNRDSGVPDRFSGSGSGTDFTLKISRVEAEDVGVYYCMQGTHWPRTFGQGTKLEIK
Molecule B6 had an other in assay [3] of 50 ng/mL.

B7: COVA2-15 IgG (antibody, V domains shown)
VH: QVQLLESGGGLVQPGGSLRLSCAASGFTFSSYAMSWVRQAPGKGLEWASAISGSGGSTYYADSVEGRFTISRDNSKNTLYLQMNSLRAEDTAVYYCAKDTGYCGDDCYIKLIRGGPDYWGQGTLVTVSS
VL: DIVMTQSPLSLPVTLGQPASISCRSSQSLVYSDGNTFLNWFQQRPGQSPRRLIYQVSNRDSGVPDRFSGSGSGTDFTLKISRVEAEDVGVYYCMQGTHWPRTFGQGTKLEIK
As for B7, in assay [3], the other was 50 ng/mL. Also, in assay [4], the Kd stood at 0.74 nM, the koff worked out at 0.00024 s⁻¹ and the kon was determined as 333000 M⁻¹ s⁻¹.

B8: COVA2-15 monomeric IgA2 (antibody, V domains shown)
VH: QVQLLESGGGLVQPGGSLRLSCAASGFTFSSYAMSWVRQAPGKGLEWASAISGSGGSTYYADSVEGRFTISRDNSKNTLYLQMNSLRAEDTAVYYCAKDTGYCGDDCYIKLIRGGPDYWGQGTLVTVSS
VL: DIVMTQSPLSLPVTLGQPASISCRSSQSLVYSDGNTFLNWFQQRPGQSPRRLIYQVSNRDSGVPDRFSGSGSGTDFTLKISRVEAEDVGVYYCMQGTHWPRTFGQGTKLEIK
In assay [2], B8 displayed a Kd of 1.67 nM, a koff of 0.00035 s⁻¹ and a kon of 207000 M⁻¹ s⁻¹.

B9: COVA2-15 secretory IgA2 (antibody, V domains shown)
VH: QVQLLESGGGLVQPGGSLRLSCAASGFTFSSYAMSWVRQAPGKGLEWASAISGSGGSTYYADSVEGRFTISRDNSKNTLYLQMNSLRAEDTAVYYCAKDTGYCGDDCYIKLIRGGPDYWGQGTLVTVSS
VL: DIVMTQSPLSLPVTLGQPASISCRSSQSLVYSDGNTFLNWFQQRPGQSPRRLIYQVSNRDSGVPDRFSGSGSGTDFTLKISRVEAEDVGVYYCMQGTHWPRTFGQGTKLEIK
In the case of B9, the other in assay [3] amounted to 13.5 ng/mL. For the same molecule, in assay [4], binding was put at a Kd of 0.76 nM, the koff is 0.00024 s⁻¹ and the association rate constant (kon) amounted to 326000 M⁻¹ s⁻¹.

B10: COVA2-15 secretory IgA1 (antibody, V domains shown)
VH: QVQLLESGGGLVQPGGSLRLSCAASGFTFSSYAMSWVRQAPGKGLEWASAISGSGGSTYYADSVEGRFTISRDNSKNTLYLQMNSLRAEDTAVYYCAKDTGYCGDDCYIKLIRGGPDYWGQGTLVTVSS
VL: DIVMTQSPLSLPVTLGQPASISCRSSQSLVYSDGNTFLNWFQQRPGQSPRRLIYQVSNRDSGVPDRFSGSGSGTDFTLKISRVEAEDVGVYYCMQGTHWPRTFGQGTKLEIK
With B10, the other in assay [3] came to 13.5 ng/mL. In assay [4], this molecule gave a Kd of 0.38 nM, a koff of 0.00016 s⁻¹ and a kon of 423000 M⁻¹ s⁻¹.

What is called Kd is the free concentration of one partner at which half of the binding sites on the other are occupied at equilibrium, for simple one-to-one binding. A high value points to a looser complex. One may read the koff as the rate constant with which the complex falls apart. The low end stands for a long-lived complex, the high end for a short-lived complex. The kon is the second-order rate constant of association. High values mean fast association, low ones slow association.
